test: soluble on expression in E. coli; label from the status in PepcDB or PDB records

Soluble on expression in E. coli, not soluble:
MGSDKIHHHHHHMDTQQLYFLNDIGKQKPESIRNRSAACPFCDRENLTDILATEGSIIWLKNKFPTLKDTFQTVLIETDNCEDHIATYTEEHMRSLIRFSIKHWLNLQKNEEFTSVILYKNHGPFSGGSLHHAHMQIIGMKYVNYLDNVEQDNFQGVIVQKNEHIELNISDRPIIGFTEFNIIIEDIGCIDELANYIQQTVRYILTDFHKGCSSYNLFFYYLNEKIICKVVPRFVVSPLYVGYKIPQVSTKIEDVKIQLAAYFTKQNDAIIHKKIE
MGSDKIHHHHHHMDTQRIKDDEDAIRSALTSLKTATGIPVTMFATVLQDNRLQITQWVGLRTPALQNLVIEPGVGVGGRVVATRRPVGVSDYTRANVISHEKDSAIQDEGLHSIVAVPVIVHREIRGVLYVGVHSAVRLGDTVIEEVTMTARTLEQNLAINSALRRNGVPDGRGSLKANRVMNGAEWEQVRSTHSKLRMLANRVTDEDLRRDLEELCDQMVTPVRIKQTTKLSARELDVLACVALGHTNVEAAEEMGIGAETVKSYLRSVMRKLGAHTRYEAVNAARRIGALP
MGSDKIHHHHHHMDTSSREHDLVIYGATGFVGRLIAVYIAEHAPAGMRVGLAGRSNSRLEAVRAELPAAAHGWALIEASSEDADSIAALAANTRVLFTTVGPYAKHGLPVVEACARAGTHYADLAGEVFFIREAIDCYDALARTSGARIVHSCGYDSVPSDLAVLLLHQAAEADGAGGLVEVQLEARARAGISGGTLESMRGQLDAMRSSTALRSLAADPYALSPDRTREPTTPQPPDAGPVRRSADGTWTAPFIMAPFNTRIVRRSNALQRWAYGRSLQYGEVMGVAPGPAGAVIPRAMALGLRAFTGAMAFPPTRKVLDRFLPAPGTGPSTSTQRAGWFHSQVTARTEDGQRYQAIAAGPGDPGYAATAVMAGETALALALDGDRLPTAKGSLTPATALGNVLIQRLRAAGHTYQVSKLA
MGSDKIHHHHHHMDVLTPTPLTYPYEASRPKMALIAEGGGQRGIFTAGVLDAWLDNDFDPFDLFIGTSAGSQNLTSFLSRQKGYAKRLIRGLSRHKRFYQLGRGLVGGNVVDLDWYFDKTTQGSFALDFTAAAKSLGQRELLITATNSRDRQGYFLRPNGDNDHWRELLKASSALPFLYKQGVKLAPWLTASAANQVHTNYDYPQADFYLDGGLAAPLPVREAYRRGARKIVVIRTVNADFHAQSAWVHKLKSWICVSGYCPKTIDYLAQHEQAYEQELAFIANPPDDVEIIQIFADDNLQSKLLGSTDMDLRHDYQTGITAGNAFLHTQKAFYSTHSLHAQPLLESLTIMQSMTA
MGSDKIHHHHHHMDVWLQLLQAEPELRSLTDWNRLATRYTDSPKYTARDASGVFIIHTAPLASLARKKREFELLQQLRHDGLPVPEPLDLKQISATAVCYSRYRFLTGKTIQACLPLCRDKAYRLGQETGRLLQWIHQHEVPRATEWAIRCLEKHKRYVALYQAERPLTDDSIILSFIERNIHLIAGRPNRLQHDDVHLGNLITDGEHLVGLIDFSNHDVGDPWHDFVKMGLFQVDDSIPFAVGQVDGYFARDVPELFWRVYSVYLAMACISSIVWTSRHAPEETDQMRRRFECAVPIWYATFDRT
MGSDKIHHHHHHMEASSGHQLMAETLGKFVSLVSKRLPDDVMAKLTELKGIETEPLAKSLYACMFENMEKAESLNRPTCQDTGVIQFFVRAGAKFPYLGELRGILKEATILSTKQAPLRLNAVEPFDEKNTGTNVGTKVPWIEWDIVSDDDSVEIEVYMAGGGCSLPGRSIVLPPLAGYEGAVKFVFDTIVEWGINACPPLTVGVGIGTCSTSAAKLSKMAMLRKLGSSNPHPRAAEMERRIQEGLDAIGLGPQGISGHRSVLGVHVEGMAHHPSVLGVGVTVGCWANRHGIIQFNKNLQYTMISHQGVEL
MGSDKIHHHHHHMEAYQFIKDYKAHDPYRKSFIQLAKRIFNIDFAPWYEQGFWNDNYICYSYVDKHEVIANVSVNKMELIINGAKQEAIQIGTVMTAPEYRRQGLAKQLLQKALDDYDSAYDLYFLAANQEAIPLYETCGFQLIEENCYEIDMAGYTLLDKPLRRADVSPEAMVEVKKGSCPLSTVLSAQGDEHILMFYYTAGFRDFIYQVNKDVHVMFQLEGDVLHLYDIFSPAKVNVEQLVEQIAPLATKTVVCHFTPDHSVKQLTAKIDSTSSWMVRTTTKGFPPLARFPKISQA
MGSDKIHHHHHHMECLLKTTSSVRFGSIHHPCECPANEACPFSIMSLFKRKAASSLETLALAKVGETVRKRLSADPGVYRIPLDDLEIFGVADFFSAEECAKLMAIVDSVARPSPTYSGTDASGRTSYTGDVDPFDPFVLMLQRRIDDLMGIDPSFGETIQGQRYAPGQEFRGHYDHFLPSQPFWDAEQKRGGQRSWTAMAYLNAVEEGGQTEFARVNLSIPPQPGALLIWNNMKPDGTPNANAMHAGMPVVRGTKYVLTKWYRSRPWH
MGSDKIHHHHHHMEEEAIVPEVLLDKAIELGLSFTGSTFPISIFPSEIRNIIAEVHECQGFPIDYIASAMLVAIAVGIGNTHLAELKRGWQESTMLYVALVGRPGTNKSHPLSFAMKPFLDFDYQENKLYERSYAEYDNIMRMNRKERIEGGFPDQPTEPMRKRFLVSDITPEGLSFIHAQNKRGLCLWTDELSAWFKNFNRYNSGSEEQFWLSVFSAKATISDRKGNRSSIFIKRPYISVVGTIQKKILGELSKGERSSNGFIDRILFVMPNLQQKARWSRTELPDDTEKRWGGIIRRLIDLPCAKDEEGEVTPEIIPFEEDAKARLYMWQEEHARLCDTEANEVLVGVYCKLEIYIIRFCLIIQLARWVCGESEKSAIDLTSVERAITLTEYFRHSAQQVHAEIAGVQLTQQQQQLLAELPASFQTAEALSIAQKLGMKERAFKDFLSRNIGHLFAKERHGLYHKLNM
MGSDKIHHHHHHMEEINKYIQNSSETGGEIYNLIEELFPICRSITGNGVRKTMDIIRKHIPLEIHEVKSGTKVFDWTVPKEWNIKDAYVRNSKGEKVIDFKENNLHVMSYSVPVHKTMTLDELKPYLHTIPGNKDRIPYLTSYYKENWGFSLTQNKFDELCDDDYEVVIDSSLEDGSLTYGEYYIRGELEEEILLTTYTCHPSMCNDNLSGVALITFIAKALSKLKTKYSYRFLFAPETIGSITWLSRNEDKLKNIKMGLVATCVGDAGIKNYKRTKFGDAEIDKIVEKVLMHCGSEYYVADFFPWGSDERQFSSPGINLSVGSLMRSCYGFDGYHTSADNLCYMNKDGLADSYKTYLEVIYTIENNRTYLNLNPKCEPQLGKRGIYRMIGGGSDYPFDEFAMFWVLNMSDGKNSLLDIAYKSGMEFRRIKYAADALYRVELLKLV
MGSDKIHHHHHHMEELIQKALSSSNKVSSNSLIEKIIPVGGGCIHKAWSIHFQNGKRVFAKSNYIDNINMFKFERECLSVLKRFANESYICVPETLDLISYQNISILFLEWIDLKQCQQNVLGKGLALLHKSSSEWSKKNFGWEEEGFIGSSTQARGWKSNWGEFFVNYRLRPQLLQAKAWGVRVEDYEDVLIYLSSYLNDHQPKTSLVHGDLWSGNCGSTKNGLGSLYDPACYWADREVDISMTKLFGGFNREFYKGYEEIWPLNKFSKDRNDIYNLYHLLNHANIFGGSYKENSLKILKDLRSRV
MGSDKIHHHHHHMEESPLSRAPSRGGVNFLNVARTYIPNTKVECHYTLPPGTMPSASDWIGIFKVEAACVRDYHTFVWSSVPESTTDGSPIHTSVQFQASYLPKPGAQLYQFRYVNRQGQVCGQSPPFQFREPRPMDELVTLEEADGGSDILLVVPKATVLQNQLDESQQERNDLMQLKLQLEGQVTELRSRVQELERALATARQEHTELMEQYKGISRSHGEITEERDILSRQQGDHVARILELEDDIQTISEKVLTKEVELDRLRDTVKALTREQEKLLGQLKEVQADKEQSEAELQVAQQENHHLNLDLKEAKSWQEEQSAQAQRLKDKVAQMKDTLGQAQQRVAELEPLKEQLRGAQELAASSQQKATLLGEELASAAAARDRTIAELHRSRLEVAEVNGRLAELGLHLKEEKCQWSKERAGLLQSVEAEKDKILKLSAEILRLEKAVQEERTQNQVFKTELAREKDSSLVQLSESKRELTELRSALRVLQKEKEQLQEEKQELLEYMRKLEARLEKVADEKWNEDATTEDEEAAVGLSCPAALTDSEDESPEDMRLPPYGLCERGDPGSSPAGPREASPLVVISQPAPISPHLSGPAEDSSSDSEAEDEKSVLMAAVQSGGEEANLLLPELGSAFYDMASGFTVGTLSETSTGGPATPTWKECPICKERFPAESDKDALEDHMDGHFFFSTQDPFTFE
MGSDKIHHHHHHMEFQCPLCRQRLHFHEESRGWHCDGKHHFDKKEIGYWDFYKGNKPRNAESRQELRARQFLVTSGLFQPAVEAMVKVLQTQDCGSERNCVNLGPGHAWIGKLLAQALSEHELPLKVFSPLESENEAFAAAKSGMEAVCLTPLKSLPFADASADMVWLLDIPAKGKEWQRILKPGGLLLMLAAGPRHLWQIKEFVYEGLTEKPFVLELSGQFDLISQTPVSWTHALSVADAKVLMGMAPWAWRVKEASLKAMEKGDFSGLEMDYRIILAKKRV
MGSDKIHHHHHHMEFSPPLQRATLIQRYKRFLADVITPDGRELTLHCPNTGAMTGCATPGDTVWYSTSDNTKRKYPHTWELTQSQSGAFICVNTLWANRLTKEAILNESISELSGYSSLKSEVKYGSERSRIDFMLQADSRPDCYIEVKSVTLAENEQGYFPDAVTERGQKHLRELMSVAAEGQRAVIFFAVLHSAITRFSPARHIDEKYAQLLSEAQQRGVEILAYKAEISAEGMALKKSLPVTL
MGSDKIHHHHHHMEFTSLWQEFARISEVEAIALGGSRATGNYDETSDYDLYIYCSSIPDEATRLTILKSFCSYIEIGNHFWELEDDCTLMSGQDIDILYRDINQIRDELVDVVERCIIQNAYTTCLWHNVLHSKILYDSDDKLKCIVNRFDINYPQKLKQTILSHHMNLLTGHLPSYDKQIIKAVMRKDIVSFNHRVTAFLETYFDLIFALNMLTHPGEKRMIAYAEQNAQSLPNHFQKNIERLIYGTTCHPYDIQDILNDILNELTPLLHDSIG
MGSDKIHHHHHHMEILLARQPIVDRFGSIDAFELLYRSVETPAVFDGDLATMDVLTNTLIHLGVDRVAEGKRLFINFTGDLLQSELIDHLNPTQFVIEVLETVQIDEMMLQTLQKWKEAGFVLALDDFVTDLLRHHGPELFDLIDLIKIDIEAINPREQSAILHILKRNYPHIRFLAERVETHEDHTRSLAMGYDWFQGYFYAKPMLMKGKAVPPQVPVLLKMLKWLDTDDHYDDVVDEIEGNPYISVQVLQLINSPGIGLRNMVSSVRQAISLLGFSQLKSWISLIVLREMKLASPYQWSDELLRSSLHCAKLCQLFATETKTLKAESAYMIGLLSHIDALLSVDIGEIIDQLPIEPALKNVLQGEDHPFRDCLLLAISADRGEFERFEMLSNRFGIMKHRAYELLKESQVWLSQKELHLQDKTDSIV
MGSDKIHHHHHHMELDILDALGEGWTLTPAGGITGEAYIASTGQSKLFLKRNSSPFLAILSADGIVPKLLWTKRIYSGDVISAQQFIEGQELEPEMMERPEVARLLGKIHDSKELLFMLQQLDQRPIEPDELLRQCRLYFQPAELAQPELIEQAIDYLSERLPYVRTDEQVVCHSDLNHNNWLVGTDGHLYLNDWDDAIIADRAYDLGMMLYSYVDEECWPEWFAHYGHPLTKDLKQRMYWYVVAQAVLSIYWYEDTMHPDATESYLFLAQLLEMEQED

Source: the DeepSol protein solubility set
